Measured values as given in publication PMC10160006 (Nature chemical biology, 2023).

T1: EXT1-pGEn1 (human EXT1 residues 28-746 with N-terminal His8 and StrepII tag) (human, UniProt Q16394 28-746)
T1 sequence (looked up): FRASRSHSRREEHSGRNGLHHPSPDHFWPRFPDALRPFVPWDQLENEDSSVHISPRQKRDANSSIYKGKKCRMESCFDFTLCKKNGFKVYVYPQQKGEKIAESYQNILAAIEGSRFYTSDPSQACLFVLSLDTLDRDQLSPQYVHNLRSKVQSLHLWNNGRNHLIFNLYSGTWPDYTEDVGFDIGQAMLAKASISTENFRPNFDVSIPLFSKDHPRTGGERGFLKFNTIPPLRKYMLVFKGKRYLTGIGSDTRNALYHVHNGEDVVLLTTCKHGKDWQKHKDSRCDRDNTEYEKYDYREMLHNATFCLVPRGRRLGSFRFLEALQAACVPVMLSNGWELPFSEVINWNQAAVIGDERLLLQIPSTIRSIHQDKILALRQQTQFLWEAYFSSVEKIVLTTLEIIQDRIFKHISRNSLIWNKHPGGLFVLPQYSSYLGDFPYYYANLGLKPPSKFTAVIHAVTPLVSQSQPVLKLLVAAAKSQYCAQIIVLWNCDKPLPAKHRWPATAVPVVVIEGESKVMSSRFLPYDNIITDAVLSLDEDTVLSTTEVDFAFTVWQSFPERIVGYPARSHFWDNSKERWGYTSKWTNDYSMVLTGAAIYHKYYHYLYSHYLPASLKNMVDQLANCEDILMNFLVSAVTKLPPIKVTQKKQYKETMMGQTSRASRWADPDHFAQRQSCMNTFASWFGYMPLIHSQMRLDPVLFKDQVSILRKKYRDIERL

B1: human EXT1 (residues 28-746), fusion tags removed by TEV protease (enzyme, UniProt Q16394 28-746, looked up)
chain: T1 sequence (looked up)
modifications: NAG at Asn330
B2: human EXT2 (residues 46-718), fusion tags removed by TEV protease (enzyme, UniProt Q93063 46-718, looked up)
chain: WPHSIESSNDWNVEKRSIRDVPVVRLPADSPIPERGDLSCRMHTCFDVYRCGFNPKNKIKVYIYALKKYVDDFGVSVSNTISREYNELLMAISDSDYYTDDINRACLFVPSIDVLNQNTLRIKETAQAMAQLSRWDRGTNHLLFNMLPGGPPDYNTALDVPRDRALLAGGGFSTWTYRQGYDVSIPVYSPLSAEVDLPEKGPGPRQYFLLSSQVGLHPEYREDLEALQVKHGESVLVLDKCTNLSEGVLSVRKRCHKHQVFDYPQVLQEATFCVVLRGARLGQAVLSDVLQAGCVPVVIADSYILPFSEVLDWKRASVVVPEEKMSDVYSILQSIPQRQIEEMQRQARWFWEAYFQSIKAIALATLQIINDRIYPYAAISYEEWNDPPAVKWGSVSNPLFLPLIPPQSQGFTAIVLTYDRVESLFRVITEVSKVPSLSKLLVVWNNQNKNPPEDSLWPKIRVPLKVVRTAENKLSNRFFPYDEIETEAVLAIDDDIIMLTSDELQFGYEVWREFPDRLVGYPGRLHLWDHEMNKWKYESEWTNEVSMVLTGAAFYHKYFNYLYTYKMPGDIKNWVDAHMNCEDIAMNFLVANVTGKAVIKVTPRKKFKCPECTAIDGLSLDQTHMVERSECINKFASVFGTMPLKVVEHRADPVLYKDDFPEKLKSFPNIGSL
modifications: N-glycan on Asn637
B3: EXT2-pGEn2 (human EXT2 residues 46-718 with N-terminal His8, AviTag and GFP) (enzyme, UniProt Q93063 46-718, looked up)
chain: B2 chain

Tests used:
[1] = biological target: B2; test: cryo-EM structure
[2] = biological target: B1; test: cryo-EM structure
[3] = biological target: T1, EXT1-pGEn1 (human EXT1 residues 28-746 …); test: SEC-MALS

Binder: B1
stoichiometry N [1]: 1 EXT1:EXT2

Binder: B2
binding result [2]: binds

Binder: B3
binding result [3]: binds
